Experimental data reported in PMC6471467, “Comparing Gly^11/DAla^11-Replacement vs. the in-Situ Neprilysin-Inhibition Approach on the Tumor-targeting Efficacy of the ^111In-SB3/^111In-SB4 Radiotracer Pair” (Molecules, 2019).
Values joined by “and” are separate entries in the source; they are usually repeats but may differ in a detail not shown here. Equal entries are not always repeated. Where two headings read alike, the source gives them in different places. Peptide text beside a SMILES is read from it.

Tests used:
GRPR = GRPR (Homo sapiens, UniProt P30550); assay: biochemical
Sequence of GRPR (P30550 whole entry): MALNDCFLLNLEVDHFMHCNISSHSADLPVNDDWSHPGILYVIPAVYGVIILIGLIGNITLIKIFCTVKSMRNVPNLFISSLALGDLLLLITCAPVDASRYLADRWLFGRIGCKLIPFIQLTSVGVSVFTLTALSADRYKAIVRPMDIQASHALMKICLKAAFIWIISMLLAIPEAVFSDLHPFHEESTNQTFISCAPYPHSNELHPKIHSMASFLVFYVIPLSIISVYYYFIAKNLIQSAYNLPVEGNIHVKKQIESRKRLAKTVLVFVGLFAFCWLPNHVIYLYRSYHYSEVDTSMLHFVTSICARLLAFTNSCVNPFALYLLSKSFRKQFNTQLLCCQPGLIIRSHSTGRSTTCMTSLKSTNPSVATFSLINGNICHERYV
Description: Human androgen-independent prostate adenocarcinoma PC-3 cells endogenously expressing the human GRPR (LGC Promochem, Teddington, UK) were used in the present study [24]. Cells were cultured in Roswell Park Memorial Institute (RPMI)-1640 medium, supplemented with 10% heat-inactivated fetal bovine serum (FBS), 100 U/mL penicillin and 100 µg/mL streptomycin, and kept in a controlled humidified atmosphere containing 5% CO2 at 37 °C. Passages were performed weekly using a trypsin/EDTA (0.05%/0.02% w/v) solution. All culture media were purchased from Gibco BRL, Life Technologies and supplements were provided by Biochrom KG Seromed.
For the assay, triplicates per concentration point (concentration range: 10^−13–10^−6 M) of each test peptide were incubated together with the radioligand (~40,000 cpm per assay tube, at a 50 pM concentration) in PC-3 cell-membrane homogenates in a total volume of 300 μL binding buffer (BB, 50 mM HEPES pH 7.4, 1% BSA, 5.5 mM MgCl2, 35 μM bacitracin) for 1 h at 22 °C in an Incubator-Orbital Shaker (MPM Instr. SrI, Italy). Binding was interrupted by ice-cold washing buffer (WB, 10 mM HEPES pH 7.4, 150 mM NaCl) and rapid filtration (Whatman GF/B filters presoaked in BB) on a Brandel Cell Harvester (Adi Hassel Ing. Büro, Munich, Germany). Filters were washed with ice-cold WB and counted in an automatic well-type gamma counter (NaI(Tl) 3´´-crystal, Cobra Packard Auto-Gamma 5000 series instrument). The half maximal inhibitory concentration (IC50) values were calculated using nonlinear regression according to a one-site model applying the PRISM 2 program (Graph Pad Software, San Diego, CA) and represent the mean±sd from three independent experiments performed in triplicate.

[1] = In vivo stability in peripheral mouse blood (radio-HPLC); set-up: species or system mice; conditions: blood 5 min pi; for Intact radiotracer in mouse blood, representative radiochromatogram, PA-coinjection: coinjection of 300 µg phosphoramidon (PA), HPLC system 2, single representative sample (Figure 3c,d); for Intact radiotracer in mouse blood, representative radiochromatogram: without PA-coinjection, HPLC system 2, single representative sample (Figure 3a,b); for Intact radiotracer in peripheral mouse blood: healthy male Swiss albino mice, iv 3 nmol peptide, without PA, radio-HPLC, mean ± sd, n = 3
Description: For stability experiments (approved protocol # 1609, Prefecture of Attica), healthy male Swiss albino mice (30 ± 5 g, NCSR “Demokritos” Animal House Facility) were used. The radioligand, ^111In-SB3 or ^111In-SB4, was injected as a 100 μL bolus (11–22 MBq, 3 nmol total peptide) in the tail vein together with injection solution (100 µL; control) or with a phosphoramidon (PA)-solution (100 µL injection solution containing 300 µg PA). Animals were euthanized and blood (0.5–1 mL) was directly withdrawn from the heart and transferred in a pre-chilled EDTA-containing Eppendorf tube on ice. Blood samples were centrifuged for 10 min at 2000 g/4 °C and plasma was collected. After addition of an equal volume of ice-cold MeCN the mixture was centrifuged for 10 min at 15,000 g/4 °C. The supernatant was concentrated under a N2-flux at 40 °C to 0.05-0.1 mL, diluted with saline (0.4 mL), filtered through a 0.22 μm Millex GV filter (Millipore, Milford, USA) and analyzed by RP-HPLC. The Symmetry Shield RP18 (5 μm, 3.9 mm × 20 mm) column was eluted at a flow rate of 1.0 mL/min with the following linear gradient (system 2): 0% B at 0 min to 10% B in 10 min and then in 40 min to 30% B; A = 20 mM ammonium acetate and B = MeCN. The tR of the intact radiopeptide was determined by coinjection with the ^111In-SB3 or ^111In-SB4 reference in the HPLC.

[2] = Biodistribution in SCID mice bearing PC-3 xenografts; assay type: in vivo; conditions: female, mouse, pancreas, total radioactivity, average ± sd; for tissue uptake at 4 h: 4 h pi; for tissue uptake at 24 h: 24 h pi, n = 4, read-out: Pancreatic uptake, 24 h pi
Description: A suspension containing freshly harvested human PC-3 cells (≈150 μL of a ≈1.2 × 10^7 cells) was subcutaneously injected in the flanks of female SCID mice (15 ± 3 g, six weeks of age at the day of arrival, NCSR “Demokritos” Animal House Facility).
Animals were euthanized at 4 and 24 h pi and dissected; samples of blood, tumors and organs of interest were collected, weighed and measured for radioactivity in the gamma counter. Intestines and stomach were not emptied of their contents. Data was calculated as percent injected dose per gram tissue (%ID/g) with the aid of standard solutions and represent mean values±sd, n = 4.

[3] = small library of ^99mTc-labeled analogs with acyclic tetraamine chelator; cited from earlier work
Excerpt: Earlier work on the development of GRPR-antagonists generated a solid body of structure-activity relationships data, pinpointing at important factors for sustained in vivo action. […] Metabolic stability could be enhanced by suitable structural modifications, including DAla^11/Gly^11 in BBN-based or DAla^24/Gly^24 in GRP-based peptide ligands.

[4] = iv, with phosphoramidon (PA), 300 µg co-injected (NEP-inhibition), coinjection of 300 µg PA, n = 4, read-out: Pancreatic uptake, 4 h pi, PA-coinjection
[5] = iv 10 pmol peptide, control, n = 4, read-out: Pancreatic uptake, 4 h pi

Row | Molecule | IC50 (GRPR) | Intact radiotracer in mouse blood, representative radiochromatogram, PA-coinjection [1] [% intact radiotracer] | Intact radiotracer in mouse blood, representative radiochromatogram [1] [% intact radiotracer] | Intact radiotracer in peripheral mouse blood [1] [% intact] | tissue uptake at 4 h [2, 4] [%ID/g] | tissue uptake at 24 h ([2]; iv 10 pmol peptide) [%ID/g] | tissue uptake at 4 h [2, 5] [%ID/g] | Metabolic stability, rank within the library [3]
1 | CCNC(=O)[C@H](CC(C)C)NC(=O)[C@H](Cc1c[nH]cn1)NC(=O)CNC(=O)[C@@H](NC(=O)[C@H](C)NC(=O)[C@H](Cc1c[nH]c2ccccc12)NC(=O)[C@H](CCC(N)=O)NC(=O)[C@@H](Cc1ccccc1)NC(=O)COCC(=O)Nc1ccc(CNC(=O)CN2CCN(CC(=O)O)CCN(CC(=O)O)CCN(CC(=O)O)CC2)cc1)C(C)C [SB3] | 4.6 ± 0.3 nM |  |  |  |  |  |  | 
2 | CCNC(=O)[C@H](CC(C)C)NC(=O)[C@H](Cc1c[nH]cn1)NC(=O)[C@@H](C)NC(=O)[C@@H](NC(=O)[C@H](C)NC(=O)[C@H](Cc1c[nH]c2ccccc12)NC(=O)[C@H](CCC(N)=O)NC(=O)[C@@H](Cc1ccccc1)NC(=O)COCC(=O)Nc1ccc(CNC(=O)CN2CCN(CC(=O)O)CCN(CC(=O)O)CCN(CC(=O)O)CC2)cc1)C(C)C [SB4, DOTA-p-aminomethylaniline-diglycolic acid-DPhe-Gln-Trp-Ala-Val-DAla-His- Leu-NHEt] (HELM PEPTIDE1{[O=C(O)CN1CCN(CC(=O)O)CCN(CC(=O)NCc2ccc(NC(=O)COCC(=O)[*:2])cc2)CCN(CC(=O)O)CC1].[dF].Q.W.A.V.[dA].H.L.[CCN[*:1]]}$$$$V2.0) | 11.2 nM and 10.7 nM |  |  |  |  |  |  | 
3 | CCNC(=O)[C@H](CC(C)C)NC(=O)[C@H](Cc1c[nH]cn1)NC(=O)CNC(=O)[C@@H](NC(=O)[C@H](C)NC(=O)[C@H](Cc1c[nH]c2ccccc12)NC(=O)[C@H](CCC(N)=O)NC(=O)[C@@H](Cc1ccccc1)NC(=O)COCC(=O)Nc1ccc(CNC(=O)CN2CCN(CC(=O)O)CCN(CC(=O)O)CCN(CC(=O)O)CC2)cc1)C(C)C [^111In-SB3, metal not drawn] |  | 98.9 | 55 | 56 ± 2 | 33.1 ± 6.2 | 0.6 ± 0.1 | 3.5 ± 0.4 | 
4 | CCNC(=O)[C@H](CC(C)C)NC(=O)[C@H](Cc1c[nH]cn1)NC(=O)[C@@H](C)NC(=O)[C@@H](NC(=O)[C@H](C)NC(=O)[C@H](Cc1c[nH]c2ccccc12)NC(=O)[C@H](CCC(N)=O)NC(=O)[C@@H](Cc1ccccc1)NC(=O)COCC(=O)Nc1ccc(CNC(=O)CN2CCN(CC(=O)O)CCN(CC(=O)O)CCN(CC(=O)O)CC2)cc1)C(C)C [^111In-SB4, metal not drawn] (HELM PEPTIDE1{[O=C(O)CN1CCN(CC(=O)O)CCN(CC(=O)NCc2ccc(NC(=O)COCC(=O)[*:2])cc2)CCN(CC(=O)O)CC1].[dF].Q.W.A.V.[dA].H.L.[CCN[*:1]]}$$$$V2.0) |  | 99.7 | 77 | 80 ± 3 | 4.9 ± 0.7 | 0.1 | 1.6 ± 0.8 | 
5 | ^99mTc-[N4-p-aminomethylaniline-diglycolic acid-DPhe^6,DAla^11,Leu^13-NHEt]BBN(6-13) |  |  |  |  |  |  |  | highest metabolic stability
